Laboratory results from IntAct's records for PubMed 20558380.

B1: Vang-like protein 2 (Homo sapiens), Q9ULK5 (parent)
chain: MDTESQYSGYSYKSGHSRSSRKHRDRRDRHRSKSRDGGRGDKSVTIQAPGEPLLDNESTRGDERDDNWGETTTVVTGTSEHSISHDDLTRIAKDMEDSVPLDCSRHLGVAAGATLALLSFLTPLAFLLLPPLLWREELEPCGTACEGLFISVAFKLLILLLGSWALFFRRPKASLPRVFVLRALLMVLVFLLVVSYWLFYGVRILDARERSYQGVVQFAVSLVDALLFVHYLAVVLLELRQLQPQFTLKVVRSTDGASRFYNVGHLSIQRVAVWILEKYYHDFPVYNPALLNLPKSVLAKKVSGFKVYSLGEENSTNNSTGQSRAVIAAAARRRDNSHNEYYYEEAEHERRVRKRRARLVVAVEEAFTHIKRLQEEEQKNPREVMDPREAAQAIFASMARAMQKYLRTTKQQPYHTMESILQHLEFCITHDMTPKAFLERYLAAGPTIQYHKERWLAKQWTLVSEEPVTNGLKDGIVFLLKRQDFSLVVSTKKVPFFKLSEEFVDPKSHKFVMRLQSETSV
partner: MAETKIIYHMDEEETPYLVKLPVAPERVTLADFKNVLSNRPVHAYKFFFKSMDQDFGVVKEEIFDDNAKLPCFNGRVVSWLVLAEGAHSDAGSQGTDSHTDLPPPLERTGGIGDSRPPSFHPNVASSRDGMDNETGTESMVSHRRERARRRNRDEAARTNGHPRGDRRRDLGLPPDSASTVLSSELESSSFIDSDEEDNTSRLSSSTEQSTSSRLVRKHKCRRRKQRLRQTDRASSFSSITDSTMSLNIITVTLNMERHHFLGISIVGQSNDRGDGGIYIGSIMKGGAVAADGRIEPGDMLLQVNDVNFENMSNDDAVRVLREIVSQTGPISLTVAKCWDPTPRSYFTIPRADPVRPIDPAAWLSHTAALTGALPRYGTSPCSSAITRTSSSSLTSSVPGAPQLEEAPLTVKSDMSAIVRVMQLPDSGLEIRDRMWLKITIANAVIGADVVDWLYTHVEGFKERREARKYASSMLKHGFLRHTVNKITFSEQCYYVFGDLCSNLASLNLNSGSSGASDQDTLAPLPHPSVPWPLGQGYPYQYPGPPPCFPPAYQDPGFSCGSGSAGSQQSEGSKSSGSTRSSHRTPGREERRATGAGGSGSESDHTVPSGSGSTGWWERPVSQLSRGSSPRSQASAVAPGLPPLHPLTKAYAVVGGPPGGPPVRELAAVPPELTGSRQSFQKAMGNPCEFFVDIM
B2: Vang-like protein 2 (Homo sapiens), Q9ULK5 (parent)
chain: B1 chain
partner: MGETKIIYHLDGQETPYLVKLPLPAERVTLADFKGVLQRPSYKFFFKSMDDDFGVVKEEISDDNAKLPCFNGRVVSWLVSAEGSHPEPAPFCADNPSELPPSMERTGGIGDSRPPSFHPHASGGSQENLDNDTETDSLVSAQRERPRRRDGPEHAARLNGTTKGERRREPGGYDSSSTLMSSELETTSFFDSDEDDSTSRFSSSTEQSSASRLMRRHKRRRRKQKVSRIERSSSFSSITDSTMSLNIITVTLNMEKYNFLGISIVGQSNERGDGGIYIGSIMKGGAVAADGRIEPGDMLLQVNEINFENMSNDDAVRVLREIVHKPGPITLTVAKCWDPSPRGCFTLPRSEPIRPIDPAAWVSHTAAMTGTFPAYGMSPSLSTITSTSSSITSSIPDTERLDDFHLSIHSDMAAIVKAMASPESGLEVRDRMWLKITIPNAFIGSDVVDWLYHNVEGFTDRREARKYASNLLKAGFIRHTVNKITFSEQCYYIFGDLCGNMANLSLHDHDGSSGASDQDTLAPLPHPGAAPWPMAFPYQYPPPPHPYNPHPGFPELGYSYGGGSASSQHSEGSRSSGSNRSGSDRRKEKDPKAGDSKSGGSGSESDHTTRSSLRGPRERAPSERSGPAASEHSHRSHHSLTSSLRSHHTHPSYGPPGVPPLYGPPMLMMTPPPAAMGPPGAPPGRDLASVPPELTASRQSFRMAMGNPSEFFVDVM

Variants of: B1
Conditions: with dvl1_mouse Dvl1, P51141

Row | Variant | effect of a mutation on the interaction
1 | MDTESQYSGYSYKSGHSRSSRKHRDRRDRHRSKSRDGGRGDKSVTIQAPGEPLLDNESTRGDERDDNWGETTTVVTGTSEHSISHDDLTRIAKDMEDSVPLDCSRHLGVAAGATLALLSFLTPLAFLLLPPLLWREELEPCGTACEGLFISVAFKLLILLLGSWALFFRRPKASLPRVFVLRALLMVLVFLLVVSYWLFYGVRILDARERSYQGVVQFAVSLVDALLFVHYLAVVLLELRQLQPQFTLKVVRSTDGASRFYNVGHLSIQRVAVWILEKYYHDFPVYNPALLNLPKSVLAKKVSGFKVYSLGEENSTNNSTGQSRAVIAAAARRRDNSHNEYYYEEAEHERRVRKRRARLVVAVEEAFTHIKRLQEEEQKNPREVMDPREAAQAIFASMARAMQKYLRTTKQQPYHTMESILQHLEFCITHDMTPKAFLERYLAAGPTIQYHKERWLAKQWTLVNEEPVTNGLKDGIVFLLKRQDFSLVVSTKKVPFFKLSEEFVDPKSHKFVMRLQSETSV [S464N] | disrupting interaction
2 | MDTESQYSGYSYKSGHSRSSRKHRDRRDRHRSKSRDGGRGDKSVTIQAPGEPLLDNESTRGDERDDNWGETTTVVTGTSEHSISHDDLTRIAKDMEDSVPLDCSRHLGVAAGATLALLSFLTPLAFLLLPPLLWREELEPCGTACEGLFISVAFKLLILLLGSWALFFRRPKASLPRVFVLRALLMVLVFLLVVSYWLFYGVRILDARERSYQGVVQFAVSLVDALLFVHYLAVVLLELRQLQPQFTLKVVRSTDGASRFYNVGHLSIQRVAVWILEKYYHDFPVYNPALLNLPKSVLAKKVSGFKVYSLGEENSTNNSTGQSRAVIAAAARRRDNSHNEYYYEEAEHERRVCKRRARLVVAVEEAFTHIKRLQEEEQKNPREVMDPREAAQAIFASMARAMQKYLRTTKQQPYHTMESILQHLEFCITHDMTPKAFLERYLAAGPTIQYHKERWLAKQWTLVSEEPVTNGLKDGIVFLLKRQDFSLVVSTKKVPFFKLSEEFVDPKSHKFVMRLQSETSV [R353C] | decreasing interaction

Variants of: B2
Conditions: with dvl3_mouse Dvl3, Q61062

Row | Variant | effect of a mutation on the interaction
3 | MDTESQYSGYSYKSGHSRSSRKHRDRRDRHRSKSRDGGRGDKSVTIQAPGEPLLDNESTRGDERDDNWGETTTVVTGTSEHSISHDDLTRIAKDMEDSVPLDCSRHLGVAAGATLALLSFLTPLAFLLLPPLLWREELEPCGTACEGLFISVAFKLLILLLGSWALFFRRPKASLPRVFVLRALLMVLVFLLVVSYWLFYGVRILDARERSYQGVVQFAVSLVDALLFVHYLAVVLLELRQLQPQFTLKVVRSTDGASRFYNVGHLSIQRVAVWILEKYYHDFPVYNPALLNLPKSVLAKKVSGFKVYSLGEENSTNNSTGQSRAVIAAAARRRDNSHNEYYYEEAEHERRVRKRRARLVVAVEEAFTHIKRLQEEEQKNPREVMDPREAAQAIFASMARAMQKYLRTTKQQPYHTMESILQHLEFCITHDMTPKAFLERYLAAGPTIQYHKERWLAKQWTLVNEEPVTNGLKDGIVFLLKRQDFSLVVSTKKVPFFKLSEEFVDPKSHKFVMRLQSETSV [S464N] | disrupting interaction
4 | MDTESQYSGYSYKSGHSRSSRKHRDRRDRHRSKSRDGGRGDKSVTIQAPGEPLLDNESTRGDERDDNWGETTTVVTGTSEHSISHDDLTRIAKDMEDSVPLDCSRHLGVAAGATLALLSFLTPLAFLLLPPLLWREELEPCGTACEGLFISVAFKLLILLLGSWALFFRRPKASLPRVFVLRALLMVLVFLLVVSYWLFYGVRILDARERSYQGVVQFAVSLVDALLFVHYLAVVLLELRQLQPQFTLKVVRSTDGASRFYNVGHLSIQRVAVWILEKYYHDFPVYNPALLNLPKSVLAKKVSGFKVYSLGEENSTNNSTGQSRAVIAAAARRRDNSHNEYYYEEAEHERRVRKRRARLVVAVEEAFTHIKRLQEEEQKNPREVMDPREAAQAIFASMARAMQKYLRTTKQQPYHTMESILQHLEFCITHDMTPKASLERYLAAGPTIQYHKERWLAKQWTLVSEEPVTNGLKDGIVFLLKRQDFSLVVSTKKVPFFKLSEEFVDPKSHKFVMRLQSETSV [F437S] | disrupting interaction
5 | MDTESQYSGYSYKSGHSRSSRKHRDRRDRHRSKSRDGGRGDKSVTIQAPGEPLLDNESTRGDERDDNWGETTTVVTGTSEHSISHDDLTRIAKDMEDSVPLDCSRHLGVAAGATLALLSFLTPLAFLLLPPLLWREELEPCGTACEGLFISVAFKLLILLLGSWALFFRRPKASLPRVFVLRALLMVLVFLLVVSYWLFYGVRILDARERSYQGVVQFAVSLVDALLFVHYLAVVLLELRQLQPQFTLKVVRSTDGASRFYNVGHLSIQRVAVWILEKYYHDFPVYNPALLNLPKSVLAKKVSGFKVYSLGEENSTNNSTGQSRAVIAAAARRRDNSHNEYYYEEAEHERRVCKRRARLVVAVEEAFTHIKRLQEEEQKNPREVMDPREAAQAIFASMARAMQKYLRTTKQQPYHTMESILQHLEFCITHDMTPKAFLERYLAAGPTIQYHKERWLAKQWTLVSEEPVTNGLKDGIVFLLKRQDFSLVVSTKKVPFFKLSEEFVDPKSHKFVMRLQSETSV [R353C] | decreasing interaction
6 | MDTESQYSGYSYKSGHSRSSRKHRDRRDRHRSKSRDGGRGDKSVTIQAPGEPLLDNESTRGDERDDNWGETTTVVTGTSEHSISHDDLTRIAKDMEDSVPLDCSRHLGVAAGATLALLSFLTPLAFLLLPPLLWREELEPCGTACEGLFISVAFKLLILLLGSWALFFRRPKASLPRVFVLRALLMVLVFLLVVSYWLFYGVRILDARERSYQGVVQFAVSLVDALLFVHYLAVVLLELRQLQPQFTLKVVRSTEGASRFYNVGHLSIQRVAVWILEKYYHDFPVYNPALLNLPKSVLAKKVSGFKVYSLGEENSTNNSTGQSRAVIAAAARRRDNSHNEYYYEEAEHERRVRKRRARLVVAVEEAFTHIKRLQEEEQKNPREVMDPREAAQAIFASMARAMQKYLRTTKQQPYHTMESILQHLEFCITHDMTPKAFLERYLAAGPTIQYHKERWLAKQWTLVSEEPVTNGLKDGIVFLLKRQDFSLVVSTKKVPFFKLSEEFVDPKSHKFVMRLQSETSV [D255E] | disrupting interaction
